Measurements taken from the Human Domainome abundance scans (Beltran et al. 2025).

B1: Gamma-crystallin S, residues 96 to 176; numbered along this chain, P22914 (parent)
chain: IQIFEKGDFSGQMYETTEDCPSIMEQFHMREIHSCKVLEGVWIFYELPNYRGRQYLLDKKEYRKPIDWGAASPAVQSFRRI

Variants of: B1
Assay: abundance fitness (aPCA) (normalised: wild type 0, dead -1); higher = more abundant; growth selection in yeast, the domain comes from the species named
Details: Homo sapiens

Abundance fitness, by site and new letter:
E46: C -0.008 | I -0.777 | N -0.275 | F -0.584 | Q 0.034 | T -0.13 | D -0.476 | R -0.137 | V -0.386 | W -0.875 | S -0.101 | L -0.279 | M -0.21 | G -0.094 | A -0.016 | P -0.16 | H -0.047
F44: M 0.064 | W -0.141 | K -0.929 | N -0.868 | I -0.215 | P -1.11 | T -0.195 | C 0.035 | H -0.441 | S -0.272 | R -1.02 | L 0.005 | G 0.015 | V 0.009 | E -0.951 | A -0.007 | Y -0.104 | Q -0.602
K60: D -0.251 | G 0.017 | I -0.18 | Q 0.064 | V -0.242 | E -0.049 | W -0.116 | L -0.035 | M 0.078 | P -0.154 | N 0.111 | C 0.021 | S 0.005 | R -0.143 | A -0.001
Y55: R 0.055 | D -0.531 | W 0.014 | F 0.117 | V -0.128 | L -0.051 | M -0.231 | E -0.425 | A -0.152 | G -0.529 | H 0.218 | K -0.352 | S -0.437
Q54: F -0.114 | L -0.121 | R -0.013 | H 0.035 | C -0.001 | K -0.07 | N 0.089 | P -0.168 | E -0.067 | I -0.045 | G -0.048 | V -0.045 | S 0.017 | W -0.279 | T 0.044 | Y -0.144
L56: C -0.136 | V -0.133 | D 0.309 | M -0.228 | G 0.064 | W 0.047 | T -0.04 | P 0.166 | Q -0.052 | R 0.191 | K -0.161 | E 0.115 | S -0.031 | F 0.04
Y50: I -0.851 | C -0.047 | Q -0.356 | E -0.559 | K -0.884 | R -0.685 | V -1.02 | T -0.949 | H -0.102 | S -0.705 | F -0.002 | A -0.576 | W -0.036 | L -0.351 | N -0.567 | G -0.421 | M -0.072 | D -0.823 | P -1.14
R51: G 0.062 | L -0.019 | T 0.1 | W -0.138 | M 0.049 | A -0.004 | N -0.264 | Q -0.035 | V -0.026 | E 0.037 | P -1.03 | K 0.008 | D 0 | S 0.044 | I -0.04 | H 0.013 | Y -0.166
Y45: N -0.123 | W -0.065 | C -0.273 | G -0.669 | H -0.123 | F -0.04 | I -1.1 | A -0.397 | V -1.07 | L -0.651 | T -0.304 | E -0.794 | K -0.712 | R -0.841 | Q -0.888 | D -1.03
D58: G 0.031 | K 0.012 | W -0.461 | C 0.054 | P -0.342 | F -0.099 | Y -0.067 | T 0.008 | S 0.014 | R 0.04 | E 0.085 | A 0.04 | V 0.023
V41: I -0.101 | G 0.105 | A 0.063 | S -0.026 | W -0.132 | K 0.052 | P -0.051 | M 0.041 | F -0.001
